Experiments:
[1] = molecular target: T1, recombinant full-length human Parkin protein (aa 1-465) (human, UniProt O60260 1-465); test: far-Western, overlay or dot blot; 2 µg recombinant SLP-2 separated by SDS-PAGE and transferred to a membrane, incubated with 60 µg recombinant Parkin, probed with anti-Parkin antibody; conditions: both partners purified
T1 construct: SUMO cleaved with ULP-1 protease; also called recombinant Parkin; source: E. coli One Shot BL21(DE3)pLysS, purified (IMAC, nondenaturing)

[2] = molecular target: T2, recombinant human Parkin fragment aa 138-465 (human, UniProt O60260 138-465); test: far-Western, overlay or dot blot; 2 µg recombinant Parkin proteins (aa 1-465 and aa 138-465) separated by SDS-PAGE and transferred to immobilon membrane, incubated for 6 h with 80 µg recombinant SLP-2, probed with anti-SLP-2 antibody; conditions: both partners purified
T2 construct: SUMO cleaved with ULP-1 protease; source: E. coli One Shot BL21(DE3)pLysS, purified (IMAC, nondenaturing)
T2 sequence (looked up): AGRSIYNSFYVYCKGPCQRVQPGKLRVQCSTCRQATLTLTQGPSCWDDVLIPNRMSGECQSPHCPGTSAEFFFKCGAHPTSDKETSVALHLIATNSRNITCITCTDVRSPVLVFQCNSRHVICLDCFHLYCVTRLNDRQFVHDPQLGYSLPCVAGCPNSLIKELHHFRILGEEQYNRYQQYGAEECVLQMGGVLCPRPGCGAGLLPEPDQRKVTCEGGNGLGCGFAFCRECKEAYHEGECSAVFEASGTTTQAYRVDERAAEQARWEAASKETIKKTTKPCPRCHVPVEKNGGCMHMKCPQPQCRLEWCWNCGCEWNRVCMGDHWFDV

B1: recombinant human SLP-2 protein (aa 41-356) (domain or fragment, UniProt Q9UJZ1 41-356, looked up)
chain: VPQQEAWVVERMGRFHRILEPGLNILIPVLDRIRYVQSLKEIVINVPEQSAVTLDNVTLQIDGVLYLRIMDPYKASYGVEDPEYAVTQLAQTTMRSELGKLSLDKVFRERESLNASIVDAINQAADCWGIRCLRYEIKDIHVPPRVKESMQMQVEAERRKRATVLESEGTRESAINVAEGKKQAQILASEAEKAEQINQAAGEASAVLAKAKAKAEAIRILAAALTQHNGDAAASLTVAEQYVSAFSKLAKDSNTILLPSNPGDVTSMVAQAMGVYGALTKAPVPGTPDSLSSGSSRDVQGTDASLDEELDRVKMS
notes: Stomatin-like protein 2, human, aa 41-356; SUMO cleaved with ULP-1 protease; also called recombinant SLP-2; source: E. coli One Shot BL21(DE3)pLysS, purified (IMAC, nondenaturing)
Question: Does B1 bind [1]?
Answer: Result: binds

Question: Does B1 bind [2]?
Answer: Result: binds

— paper PMC10790385, “Intracellular delivery of Parkin-RING0-based fragments corrects Parkin-induced mitochondrial dysfunction through interaction with SLP-2” (Journal of Translational Medicine, 2024)
